T1: Interleukin 4 receptor (IL4R) protein (UniProt P24394 26-232, limits assumed)
T1 construct: Purified protein amine-coupled (NHS-EDC) to the SPR chip; The construct is not described
T1 sequence (looked up): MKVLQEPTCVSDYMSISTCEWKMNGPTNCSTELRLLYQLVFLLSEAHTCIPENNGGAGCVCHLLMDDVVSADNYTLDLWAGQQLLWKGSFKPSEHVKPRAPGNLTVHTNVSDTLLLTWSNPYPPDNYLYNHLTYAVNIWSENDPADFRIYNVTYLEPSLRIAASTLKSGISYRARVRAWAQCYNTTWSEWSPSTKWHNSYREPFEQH

B1: TRAIL-ATNC (Active Trimer Nanocage) (other)
chain: MGSSHHHHHHSSGLVPRGSQHMVRERGPQRVAAHITGTRGRSNTLSSPNSKNEKALGRKINSWESSRSGHSFLSNLHLRNGELVIHEKGFYYIYSQTYFRFQEEIKENTKNDKQMVQYIYKYTSYPDPILLMKSARNSCWSKDAEYGLYSIYQGGIFELKENDRIFVSVTNEHLIDMDHEASFFGAFLVGGSGGGSGEFEALQGQVQHLQAAFSQYKKVELFPVDGGGGAEAAAKEAAAKTSDSEAAINRQINLELYASYVYLSMSYYFDRDDVALKNFAKYFLHQSHEEREHAEKLMKLQNQRGGRIFLQDIKKPDCDDWESGLNAMECALHLEKNVNQSLLELHKLATDKNDPHLCDFIETHYLNEQVKAIKELGDHVTNLRKMGAKL
notes: It was expressed from pET-28a and purified on Ni-NTA; also called TRAIL-attached nanocage
B2: TRAIL-ATNC^IL4rP (other)
chain: MGSSHHHHHHSSGLVPRGSQHMVRERGPQRVAAHITGTRGRSNTLSSPNSKNEKALGRKINSWESSRSGHSFLSNLHLRNGELVIHEKGFYYIYSQTYFRFQEEIKENTKNDKQMVQYIYKYTSYPDPILLMKSARNSCWSKDAEYGLYSIYQGGIFELKENDRIFVSVTNEHLIDMDHEASFFGAFLVGGSGGGSGEFEALQGQVQHLQAAFSQYKKVELFPVDGGGGAEAAAKEAAAKTSDSEAAINRQINLELYASYVYLSMSYYFDRDDVALKNFAKYFLHQSHEEREHAEKLMKLQNQRGGRIFLQDIKKPDCDDWESGLNAMECALHLEKNVNQSLLELHKLATDKNDPHLCDFIETHYLNEQVKAIKELGDHVTNLRKMGAKLGGGSGGPLGLAGGGGSGCRKRLDRNC
notes: Ferritin nanocage of 24 fusion polypeptides; It was expressed from pET-28a and purified on Ni-NTA; also called TRAIL trimer fusion protein expressed on the cancer-targeting ferritin nanocage

Assays:
[1] = biological target: T2, TRAIL receptor protein Dr5 (UniProt O14763 56-182, limits assumed); experiment: SPR, Dr5 coupled to gold sensor chip, TRAIL-ATNC flowed 8.33 nM to 0.52 nM
T2 construct: Purified protein amine-coupled (NHS-EDC) to the SPR chip; The construct is not described
Protocol: (§1) The TRAIL receptor protein Dr5 was coupled to a surface of a gold sensor chip by flowing it on the surface of the gold sensor chip for surface resonance plasma (SPR) activated with NHS-EDC, and blocked with ethanolamine. The binding kinetics were analyzed by flowing TRAIL-ATNC dissolved in TBS from 8.33 nM to 0.52 nM by half, and TRAIL from 400 nM to 25 nM by half on the TRAIL receptor-coupled gold sensor chip, respectively. The right channel, which was not coated with Dr5, was used as a control (or reference).

[2] = biological target: T2, TRAIL receptor protein Dr5; experiment: SPR, Dr5 coupled to gold sensor chip
Protocol: as §1
It was determined that TRAIL-ATNC bound to the TRAIL receptor faster than TRAIL, and formed a stable complex in which dissociation was delayed after binding.

[3] = biological target: T1, Interleukin 4 receptor (IL4R) protein; experiment: SPR, IL4R coupled to gold sensor chip, TRAIL-ATNC^IL4rP flowed 41.67 nM to 0.65 nM
Protocol: Interleukin 4 receptor (IL4R) protein was coupled to the surface of a gold sensor chip for surface resonance plasma (SPR) activated with NHS-EDC, and TRAIL-ATNC^IL4rP dissolved in TBS was flowed from 41.67 nM to 0.65 nM in half on the IL4R-coupled gold sensor chip to analyze binding kinetics. The right channel, which was not coated with IL4R, was used as a reference.

Row | Binder | Kd [1] | koff [1] | kon [1] | fold higher kon than TRAIL alone [2] | fold lower KD than TRAIL [2] | fold lower koff than TRAIL alone [2] | Kd [3]
1 | B1 | 0.411 nM | 0.000217 s⁻¹ | 529000 M⁻¹ s⁻¹ | ~10 fold | ~100 fold | ~10 fold | –
2 | B2 | – | – | – | – | – | – | 37.7 nM

Reference: US20220177547A1 (KYUNGPOOK NATIONAL UNIVERSITY INDUSTRY ACADEMIC COOPERATION …, published 2022)
